This note sets out measurements from publication PMC5294454, “Enhanced delignification of steam-pretreated poplar by a bacterial laccase” (Scientific Reports, 2017).

Substrate in series [1]: COc1cccc(OC)c1O
Put plainly: purified protein. Type of series: biochemical, Amycolatopsis sp. ATCC 39116. To be noted: O2, 50 mM Tris-HCl, pH 8, 30 °C, 0.1 μM sLac.

Substrate in series [2]: CCn1c(=NN=c2sc3cc(S(=O)(=O)O)ccc3n2CC)sc2cc(S(=O)(=O)O)ccc21
Put plainly: purified protein. To be noted: O2, 50 mM sodium acetate, pH 5, 30 °C, 0.1 μM sLac.

B1: sLac (Amycolatopsis sp. ATCC 39116) (protein)
chain: QGTTRRITMYAEKISDELYGYGLAPGGATVPGPVLEMWEGDTLEIDLVNTTDRVLSLHPHGVDYDVNSDGTLMNGSAVMPGQTRRYTWRSHVGYRRADGSWAEGTAGYWHYHDHAMGTEHGTEGVLKGLYGALVVRRQGDLLPKRQFTVVFNDMMINNRAHHDAPTFEANLGERVEWIAIGHGSNFHTFHLHGHRWLDNRTGMRTSEYDPSPLIDIKDLNPGVSFGFQVIAGEGVGPGMWMYHCHVQNHSDMGMAGMFLVRNADGTMPAGVHEH
notes: residues 6-279, putative N-terminal TAT signal removed, TEV-cleavable N-terminal poly-His tag (cleavage not mentioned), pET15a(+), E. coli Rosetta BL21(DE3)pLysS; forward primer […] encodes MQGTTRRI; reverse primer encodes C-terminal ...VHEH
As a reminder, the Km is the concentration of substrate that gives half-maximal velocity. One may read the kcat as the number of substrate molecules converted per active site and unit of time at saturation. Turning to B1, in the series “purified protein [1]”, the Km came to 3000 ± 100 µM and the kcat is 0.5 ± 0.07 s⁻¹. Also, in “purified protein [2]”, the Km worked out at 500 ± 40 µM and the kcat was 7 ± 0.3 s⁻¹.
